Measured values taken from the DeepSol protein solubility set.

Experiment: soluble on expression in E. coli; label from the status in PepcDB or PDB records

Row | Sequence | soluble on expression in E. coli
1 | MGSDKIHHHHHHMSKRQFGLIYISSYQARLFIVDLKKLAIIEQLSSVQFVQGGKKFEVYENELPRLTDALIGFKRKIAEYGIDNYKVYGNRQLLDKISARYLADQIKVRTGLEIEWLNGAQIAYYKIIAGMALPQFSELADDEFTYLLSMGSAMLNLTLFKGQHYLSTWNFALGPEEIEEMAAMTRDTPSDPIDIIGDYISRKLVSFKTIEKPTGKARIIIQHVFGRGEQSLRPQEKARVIDLKQFAGVYSDFREAPDQYLMEKYELDTDSLARMKPTIVLINQLVKIIKPHMMTLTQSSAITGLMIQEAARLKYRPDEYSTIVLTATKNIARRYESGGQHINLSNKFALHIFDRLAHAGMVDRRDRQLLEIAARLHDIGNFINFHNHYEHAAYIVGANQIIGLSDRENEMLLSILKHQDITNLNADEREYRHLDPALQVRVAKLAAILRLANSLDASRKQKISKIVVSIKDEKMLIVVTSKRDLTLERWVFEKNVNLAEAVFGMKIAMKQKRGK | not soluble
2 | MSLGIGKEAEVKKSFEKTLSMYPIKNLEDLYDKEGYRDDQFDKNDKGTWIINSEMVIQPNNEDMVAKGMVLYMNRNTKTTNGYYYVDVTKDEDEGKPHDNEKRYPVKMVDNKIIPTKEIKDKNIKKEIENFKFFVQYGNFKDLSKYKDGDISYNPEVPSYSAKYQVTNDDYNVKQLRKRYDIPTNKAPKLLLKGTGNLKGSSVGYKDIEFTFVEKKGENIYFSDSLHLEPSEDKEGHHHHHH | soluble
3 | MDPTETFARMNKVMHQTLKYVKEVESINFSSRGVIDFNGEVMEDHQRIFLSVCTSVFANFSFSCQMDVEKLLSFLMALFENYSKENAYHNALHAADSVQMLFLILREKPATLIFTENEVILAFLATLSLGFVHPGVSNAFLARIDHPLVLVYGDMTTQQSAGLTALLYLLNREENRFIDLFANSGTQPFSQFLREILVETVLGTAPRLRSSLLRDLEKVAVADAVELNDIPILLAAVVILADNALALRPHAQFVNLAGLMVTEWLREAYEEEQRGMDPLVPNLRKQIYENGLGMAVDYCKVWLRPLITNIRALVPQDLYDNMEGNTEAPSMSEIQDFLVHLDSSNERWNDGSVPVIDIIRRITMHATSLDRKASKRAILNAASN | not soluble
4 | TGLLLSLIALSLQAAQLTASVDRTRLNAGETVELTLETDDVTQFGKPDMSSLEASFEVRDTRQLNSLKTLDGSSQATTRWIVTLLPRETGSVIIPSLQLGELKSQPLTLQVMQSETKEPTSHLASIFIEASLDQDSVYVQAQAVLTLRVYHSVSLFDDSSLN | soluble
5 | MSLGNSAGFGSVGDNSSGGSGANRDANNRPSWFQETARRTIPNTVLRREVKSSSNSGEDDNGNRGDSTSTGFNTLTFGAKKHMLLGSSNVSTGGNDHMNPLLMDNSEAPPTVSISDWKREEGLFDLRNTRNENTINTIGTPTFISPISREKSEVSLFDSNSQSRSSSASSIGSESETGNAVVVFGYREAITKQILAYFAQFGEILEDLESELGDTETMRTPGYFFQQAPNRRRISREHGRTWTKLTYANHSSYLRALREHGTIYCGAAIGCVPYKHELISELSRDTYNSMNDVKQTNSISTNQLTQHNQSEVPKSNQTFETKPTNETERNQIKTPSAFGSDNKGNGSISSGRTKRRLSIKDGSSLFLSGTEGHHHHHH | soluble
6 | STEESMYTRIIKELPREGSSDVLVIKNEHVKKSDIWPSGGEMVVKDLTVKYMDDGNAVLENISFSISPGQRVGLLGRTGSGKSTLLSAFLRMLNIKGDIEIDGVSWNSVTLQEWRKAFGVITQKVFIFSGTFRQNLDPNGKHKDEEINKVADEVGLKSVIEQFPGQLNFTLVDGGYVLSHGHKQLMCLARSVLSKAKIILLDEPSAHLDPITYQVIRRVLKQAFAGCTVILCEHRIEAMLDCQRFLVIEESNVWQYDSLQALLSEKSIFQQAISSSEKMRFFQGRHSSKHKPRTQITALKEETEEEVQETRL | soluble
7 | MDSPAWMFTKALSHRQKVTRLYKRCLREVDNWYGGNNLEVRFQKCIIRARFDANADEVDTRKSQILLADGCRQLWEKRHFKPFRFALDPGGSSYDRERESPDEIVDSDQWTLAEREQFPYYFNTREQRKKELLTHWAKIEKAWDEEIASIQTQLPAAAPTVSK | not soluble
8 | MQVSLNPEWLARNNDEHKIRRNDHRSPFQRDRARILHSAAFRRLQAKTQVHGTSLNDFHRTRLTHSLEAAQIGTGIVAQIKLKQPEFRELLPSDSLIDSLCLAHDIGHPPYGHGGEIALNYMMRDHGGFEGNAQTFRIVTSLEPYTEHHGMNLSRRTLLGLLKYPALLSATRAAIPPPAVAHQRQLKAKDWSPAKGIYDCDLASLDWVLEPLCESDRELLGQMRAEPSSPKEHRKTRFKSLDCSIMELADDIAYGVHDLEDAIVLGMVTRAQWQEAAAAQLAECGDPWFEEHIAELSEMLFSGKHYVRKDAIGGIVNALLTSISVKPVEAPFHNELLAFNAYIEPHMGNALEVLKHFVSQYVIQIPQVQRFEYKGQQLIMDLFEALSADPERLLPQATGEKWRKAQEQDEGMRVICDYIAAMTDAYAQRLHQQLFSAQSHY | not soluble
9 | MGHHHHHHSHMSKAIKQNLADSKKMSAELFCLTYGAMVTEMLKDYEDPKDVTIQLDKMGFNMGTRLADDFLAKNANVPRCVDTRQIADVLCRNAIPCYLGISATASSWTSGDREFTITLEANPLTELVQVPAHLVSAGLSYSQLIAGAIRGALEAVHFKVYASATDTGANTEIRIRFDQVLKDSLPAGEDD | soluble
10 | MKIRESTGKTSSLREVPGQEPRRVADSSGSSFKRHLKEFDHRNHEERIRALVSQIEEQGRKLSQKIDVAELKVYKRLISDFLDEVLHHSHIFSKDSHLDRRGRYKVYATVKKINEELDELTKEVLNAEKDNIRILQRIEDIRGLVLDLML | soluble
11 | MYNLLTKQEIQLLSLIEYLYDSKEKVPMQVLRRKYEFSHYNINNLLNQLTLLISRVNTHENVHIRIINNQQSIELVADENIPIELMKEAVVRGSLTYMLALDLLLKRYTSAKDFCEEHFINFSIFKQVSDRLNNHLARFNCYLNLKRREKICGNEKDFRSFFYSLFFISGTSLVPFLSKTNQAQLQNFIEIIKNRYPYFTYTDLRKLKLIMSIGLLRYQSGFTITNYPEVAAINLAFPYSEFQLLVNDCFIDEQKEPDTWQAEIHFYYDFFSTLTMYSLVQMETINFANLAIMGMDNSPHATWIFEKCTQLQLDLSAIEVVFLLVNLSNASERLIHFPVEEELSYEVANVSLYEKQYPNVSRTTNYFLKRLPFDKQHPLDALFKETIFLIIRSVLLNKQIPVKILLHSSINQIQENWLAKEINNYCDVPLKFVNHIQEVPDLVITDKNNPLFHASKTFYWHPVPYLDEYYNLKQVVRKIYFAKLRGENSLEGIGC | not soluble
12 | MGSDKIHHHHHHMYLLVDVGNTHSVFSITEDGKTFRRWRLSTGVFQTEDELFSHLHPLLGDAMREIKGIGVASVVPTQNTVIERFSQKYFHISPIWVKAKNGCVKWNVKNPSEVGADRVANVVAFVKEYGKNGIIIDMGTATTVDLVVNGSYEGGAILPGFFMMVHSLFRGTAKLPLVEVKPADFVVGKDTEENIRLGVVNGSVYALEGIIGRIKEVYGDLPVVLTGGQSKIVKDMIKHEIFDEDLTIKGVYHFCFGD | not soluble
13 | LMGDDKVKKEVGRASWKYFHTLLARFPDEPTPEEREKLHTFIGLYAELYPCGECSYHFVKLIEKYPVQTSSRTAAAMWGCHIHNKVNEYLKKDIYDCATILEDYDCGCSDSDGKRVS | soluble
14 | MQNHVISLASAAERRAHIAATFGVRGIPFQFFDALMPSEELNRMMAELVPGLAKQHLLSEVEKACFMSHAVLWKQALDEGLPYVAVFEDDVLLGKDAEKFLAEDTWLEERFDKDSAFIVRLETMFAKVIVRPDKVLNYENRSFPLLESEHWGTAGYIISREAMRFFLERFAVLPAEWIKAVDWMMFTYFFDKEGMPVYQVNPALCTQELHYAKFLSKNSMLGSDLEKDREQERRHRRSLKVMFDLKRALGKFGREKKKRMERQRQAELEKAYGRRVISFK | not soluble
15 | MSLTPATETVSPISQWYDMMTRMFPDQRLTFLNYGYLAQDSDFDWINDADLEQKCSVNLIRTLLGDSDLRGKKVLEIGSGRGGNCSYLARYTGAASVTGLDFCPAHIELCNRVHALPGLSFVGGDAMALPFADNEFDVVINIESSHCYPDLNTFGAEVQRVLKQDGRFFYADTMKGDNTSALSEPDSIGVDFFSNVLAQHQAMIEHARFKVEEHRDISDGVIRAFESQDGHLKHLLRSLVEEKKQQREPLPPEVWHAFDTMFHFFDDSGIKAYKNGHLAYKFWRLQKAAEGHHHHHH | not soluble
16 | MSLPFPTIPPIAGVEIATGRAGFYKHEREDLLLMRFAEGTSAAGVFTRHGVGSAPVDWCKRQLAATGGADVRALVVNAGCANSFTGKPGADAVRRVATAVGKRFDCRQRDVMMASTGVIGVILDDSKITARLPEVESRLKADAWAEAGRAIMTTDTFPKGAYATAVIDGHEVKIAGIAKGSGMIAPDMATMLAFVATDAAIAPAALQTLVSLYTRTTFNCVTVDGDRSTNDTLLLFATGQSGAPKIHRAGDKRLADFREKLEGVLLDLALQLVKDGEGATKFVKITVNGAESPASARKIARTIAESPLVKTAFAGEDANWGRIVMAVGRADEPVAREKISVKFGDLYAARDGLISAEYDEAKMSAYVKNQAFEVSVDVGVGRGSATVWTCDLTKQYVAINGDYRSEGHHHHHH | not soluble
17 | MRRAILWFVALAIASVLAQQSRPASDPQVVEAARKEGRLIIYSSTDQSSAQALLDDFRKLYPFIQIEYNDLGTQAIYDRFVSETAAGASSADLLWSSAMELQVKLASEGYALPYDSPEAKNWPANARLGNLAYSTTLEPAVVVYNKRFLKPEEVPTTREGLARLLQEPRMRGRVATWDPERSAVGFTILKADYDRFPAFQELARAFGKAQAALYSSTGAAFEKVISGEHYLAYGFFGSYALLRQRTVKDLGIAYLTDGTVAIQRVAFINKRAAHPNAAKLFLDYLLSLRGQNLMAYTALIFARRETVVGEATPQALYKAVGGKDKVYAIPVSTEILKNLDPAERMRFLTFWRQAVRGQ | soluble
18 | MGSDKIHHHHHHMSWRYALKNYVTSPETVNDDTVTYFDDKVSIIRDSFPKSECHLLILPRTMQLSRSHPTKVIDAKFKNEFESYVNSAIDHIFRHFQEKFRIKKSDDDKDPCWDDILKDKNKFVRNFVQVGIHSVPSMANLHIHVISKDFHSVRLKNKKHYNSFNTGFFISWDDLPLNGKNLGTDKEIETTYLKEHDLLCCYCQRNFSNKFSLLKKHLELEFNSHFELK | not soluble
19 | MGSDKIHHHHHHMSSDSVIRVSNLGKRYEIYAQPKDRLKQMVMPRLKRMIGMHPPEYFREFWALRGVSFEVRRGETVAIIGQNGSGKSTLLQLVCGTLFPTNGDIQVKGRIAALLELGAGFNPEFTGEENIYLSGLLYGISEDELRNRFDSIVEFAEIGEFISQPVKTYSSGMYVRLAFAIAAHVDADMLVVDEALSVGDVRFTQKCMRFLREFQKTGTLLFVSHDVGAVTSLCSRAIWLNQGVLKMDGPAKETVEAYLAEQHALDRGQRGDVVQLAKAREKVAKQPAKAANPPVVDVVDQRWEALRANGSGTRIEVFEFMPDSSESEFGARGATIERVALRNEAGEDLPIVQGGELVDLYIESRSHQALAGLIFGFYLKDRLGQRLFGDNTFMTYADREVRSQAGDTHIARFRFRMPIMPVGAYSFDVAIATGNQHDHTQQHWIHDALSMRAVDSTMRHGLVGIPMLEIAISKEG | not soluble
20 | MKQSTIALALLPLLFTPVTKADIELTQSPSSLAVSAGEKVTMSCKSSQSLLNSGNQKNYLAWYQQKPGLPPKLLIYGASTRESGVPDRFTGSGSGTDFTLTISSVQAEDLAVYYCQNDHSYPLTFGAGTKLEIKRTVAAPSVFIFPPSDEQLKSGTASVVCLLNNFYPREAKVQWKVDNALQSGNSQESVTEQDSKDSTYSLSSTLTLSKADYEKHKVYACEVTHQGLSSPVTKSFNRGEC | soluble
